Literature values in US20170037111A1, “Novel peptides and combination of peptides for use in immunotherapy against ovarian cancer and other cancers” (immatics biotechnologies GmbH, priority 2015, published 2017).

Tested on: ovarian cancer
Conditions: clinical studies, phase as stated

B1: abagovomab: anti-CA-125 antibody (antibody, chains of the INN, looked up, V domains shown)
VH: QVKLQESGAELARPGASVKLSCKASGYTFTNYWMQWVKQRPGQGLDWIGAIYPGDGNTRYTHKFKGKATLTADKSSSTAYMQLSSLASEDSGVYYCARGEGNYAWFAYWGQGTTVTVSS
VL: DIELTQSPASLSASVGETVTITCQASENIYSYLAWHQQKQGKSPQLLVYNAKTLAGGVSSRFSGSGSGTHFSLKIKSLQPEDFGIYYCQHHYGILPTFGGGTKLEIK
  clinical effect in ovarian cancer patients: promising results
